Experimental data reported in patent publication US20240325557A1, “TREATMENT OF CANCER” (INNATE PHARMA, priority 2020, published 2024).

Assays:
[1] = molecular target: HER2 on SUM185 and SUM190 human breast cancer tumor cells (human) (UniProt P04626); assay: flow cytometry on SUM185 cells, antibody at 10 µg/ml
[2] = molecular target: HER2 on SUM185 and SUM190 human breast cancer tumor cells (human) (UniProt P04626); assay: flow cytometry on SUM190 cells, antibody at 10 µg/ml

MFI (median fluorescence units) [1]: 2880 | MFI (median fluorescence units) [2]: 1780
Substance: Anti-Her2 antibody trastuzumab modified as human IgG1 isotype containing a N297Q mutation
